These results are taken from the nanobody polyreactivity screen of Harvey et al. (2022).

A short description of the data set: yeast display, Sf9 membrane polyspecificity reagent, FACS + sequencing; frameworks hold sequencing errors. The method, boiled down: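 Galactose-induced (36–48 hours) yeast carrying a synthetic nanobody display library were exposed to 10% biotinylated, detergent-solubilized Sf9 membrane reagent at 4 °C for 1 hour. FACS followed streptavidin microbead enrichment, using low and high (top ~1%) gates for expression (anti-HA) and reagent binding (streptavidin). Colony PCR, MiSeq 2 × 250 sequencing and CDR-length filtering followed. Labels for polyreactivity reflect the gate of origin.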
On to “QFQLVESGGGLVQAGGSLRLSCAASGSILESNVMGWYRQAPGKERELVASISSSGVSTYADSVKGRFTISRDNAKNTVYLQMNSLKPEDNAVYYCAADRWYWTYALYYWGQGTQVTVSS”, for which the “polyreactivity (PSR sort gate)” value was “low polyreactivity”.

With “QFQLVESGGGLVQAGGSLRLSCAASGSTFLSNAMGWYRQAPGKERELVAGIDYNDGSTYYADSVKGRFTISRDNAKNTVYLKMNRLKPADTAVYYCAARWVFRRYVICMDFWGQGTEVTVSS”, the “polyreactivity (PSR sort gate)” value is given as “low polyreactivity”.

“QFQLVESGGGLVQAGGSLRLSCAASGSTFQWYAMGWYRQAPGKERELVAAINKSGGTTYYADSVKGRFTISRDNAKNTVYLQMNSLKPEDTAVYYCATDNPVVYQPGNMDYWGQGTQVTVSS”: the “polyreactivity (PSR sort gate)” value is given as “low polyreactivity”.

Regarding “QFQLVESGGGLVQAGGSLRLSCAASGSTFRIYTMGWYRQAPGKHRELVAGISSSGNTNYADSVKGRFTISRDNAKNTVYLQMYSLKPEDTAVYYCAAVQPAWGNGYWGQGTQVTVSS”, the “polyreactivity (PSR sort gate)” value was “high polyreactivity”.

Regarding “QFQLVESGGGLVQAGGSLRLSCAASGSTFRTYAMGWYRQAPRKERELVADITWRGGSKYYADSVKGRFTISRDNAKNTVYSQMNSLKPEDPAVYYCATDRGPEVVLYDYWGQGTQVTVSS”, the “polyreactivity (PSR sort gate)” value is “low polyreactivity”.

In the case of “QFQLVESGGGLVQAGGSLRLSCAASGSTFTPNVMGWYRQAPGKERELVAAINSSGGSTFYADSVKGRFTISRDNAKNTVYLQMNSLNPEDTAVYYCAASWHTPTVYDEYYYWGQGTQVTVSS”, the “polyreactivity (PSR sort gate)” value is reported as “low polyreactivity”.

For “QFQLVESGGGLVQAGGSLRLSCAASGSTFTQNTMGWYRQAPGKERELVAAISRRGGGTYYADSVKGRFTISRDNAKNTVYLQMNSLKPEDTAVYYCNAPYILTQQGGRRYDYWGQGTQVTVSS”, the “polyreactivity (PSR sort gate)” value is “high polyreactivity”.

As to “QFQLVESGGGLVQAGGSLRLSCAASGSTFYANAMGLYRQAPGKERELVAAISYSGGSTYYADSVKGRFTISRDNAKNTVYLQMNSLKPEDTAVYYCAATNGKKTPKVYYWGQGTQVTVSS”, the “polyreactivity (PSR sort gate)” value is listed as “low polyreactivity”.

As for “QFQLVESGGGLVQAGGSLRLSCAASGYTFAVNTMGWYRQAPGKESELVAAITLGGGSTYYADSVKGRFTISRDNAKNTVYLQMNSLKPEDTAVYYCATDPVDYRGWWRGYKYDYWGQGTQVTVSS”, the “polyreactivity (PSR sort gate)” value was “low polyreactivity”.

With “QFQLVESGGGLVQAGGSLRLSCAPSGFIISSNAMGGYRQAPGKERELVAAISARGGSTYYADSVKRRFTISRDNAKNTVYLQMNSLKPEDTAVYYCNTDYKTTGDYWGEGTQVTVSS”, the “polyreactivity (PSR sort gate)” value is “high polyreactivity”.

With “QFQLVESGGGLVQAGGSLRLSCASSGGTFGNNDMGWYRQAPGKESELVAAIRSAGTTYYADSVKGRFTISRDNAKNTVYLQMNSLKPEDTAVYYCNADTTGYWSYGFQYYGEDYWGQGTQVTVSS”, the “polyreactivity (PSR sort gate)” value is given as “low polyreactivity”.

Consider “QFQLVESGGGLVQAGGSLRLSCASSGRTFGYNTMGWYRQAPGKERELVAAINYSGGSTYYADSVKGRFTISRDNAKNTVYLQMNSLKPEDTAVYYCNAKPRWYVPYDYWGQGTQVTVSS”, for which the “polyreactivity (PSR sort gate)” value is listed as “high polyreactivity”.

For the sequence “QFQLVESGGGLVQAGGSLRLSCASYGFTFEYNAMGGYRQSPGKESEFVATISWSGGSTYYADSVKGRFTFSRDKAKNTVYLQMNSLKPEDTAVYYCNAEVFFPSTYGMDYWGQGTQVTVSS”, the “polyreactivity (PSR sort gate)” value is recorded as “low polyreactivity”.

Consider “QFQLVESGGGLVQAGGSLRLSCPPSGSIFPGYAMGWSRQSPGKERELVATITWSGGSTYYADSVKGRFTISRDNAKNTVYLQLTSLKPEDTAVYYCNADTNWYYQLNYYGLYDYWGQGTQVTVSS”, for which the “polyreactivity (PSR sort gate)” value was “low polyreactivity”.

Take “QFQLVESGGGLVQAGGSLRLSCSSSGSIFGAYDMGWYRQAPGKERELVAAITSVGSTYYADSVKGRFTISRDNAKNTVYLQMNSLKPEDTAVYDCAKRQWRPTYRYGYWGQGTQVTVSW”: the “polyreactivity (PSR sort gate)” value is given as “low polyreactivity”.

For “QFQLVESGGGLVQAGGSLRLSGAASGRTFRIYAMGWYRQAPGKDRELVAAITRSSGSTYYADSVKGRFTISRDNAKNTVYLQMNSLKPEDTAVYYCAAEALFEPIYDYWGQGTQVTVSS”, the “polyreactivity (PSR sort gate)” value is reported as “high polyreactivity”.

For “QFQLVESGGGLVQAGPSLLLSFAASGNTLHVYAMGRYRQAPGKERELVAAITSDVSTYYADSVKGRFTISRDNAKNTVYLQMHSLKPEDTAVYYFATTGYGSYLIYWGQGTQVTVSS”, the “polyreactivity (PSR sort gate)” value is “low polyreactivity”.

As for “QFQLVESGGGLVQEGGSLRLSCAASGFTFYYYTMGWYRQAPGKERELVAAITWRGGSTNYADSVKGRFTISRDNAKNTVYLQMNSLKPEDTAVYYCAAVTYWFWPGMDYWGQGTQVTVSS”, the “polyreactivity (PSR sort gate)” value was “low polyreactivity”.

Consider “QFQLVESGGGVVQAGGSLRLSCAASGSIIYVNAMGWYRQAPGKERELVAAINYSGDSTYYADSVKGRFTISRDNAKNTVYLQMNSLKPEDTAVYYCAADIYVYYAPVYQYYWYDSWGQGTQVTVSS”, for which the “polyreactivity (PSR sort gate)” value is “high polyreactivity”.

Turning to “QFQLVESGRGLVQAGGSLRLSCAASVRTFGFNAMGRYRQAPRKERELVAAISGSGGRTYYADSVKGRFTISRDKAKNTVYLQMNSLKPEDTAVYYCAAGARRGGSGYWGQGTQVTVSS”, the “polyreactivity (PSR sort gate)” value is on record as “high polyreactivity”.

Regarding “QFQLVESGVGLVQAGGSLRLSCAASGFTFWYYAMGWYRQAPGKERELVARITSRAADTYADSVKGRFTISRDNAKNTVYLQMNSLKPEDTAVYYCNAEFGRARDDDYSGQGTQVTVSS”, the “polyreactivity (PSR sort gate)” value is listed as “low polyreactivity”.

Regarding “QFQLVESGVGLVQAGGSLRLSCAASVRIFITNAMGWYRQAPGKERELVAAISGGSTYYGDSVKGRFTISRDNAKNTVYLQMNSLKPEDTAVYYCAVDNYYTPWYPYLGYDSWGQGTQVTVSS”, the “polyreactivity (PSR sort gate)” value is listed as “low polyreactivity”.

Regarding “QFQLVESVGCLVQAGGSLRLSCAASGILFSWYAMGWYRQPPGKERELVAAISKGGGSTYYADSVKGRFTISRDNAKNTVYLQMNSLIPEDTAVYYCAADSSYGYGYWGQGTQVTVSS”, the “polyreactivity (PSR sort gate)” value is on record as “high polyreactivity”.

As to “QFQLVESVGGLVQAGGSLRLSCAASGNIFPAYAMGWYRQAPGKERELVAAISKSGGRTYYADSVKGRFTISRDNAKNTVYLQMNSQKPEDTAVYYALLTVLRAVPYSVRYDYCGQGTQVTVSS”, the “polyreactivity (PSR sort gate)” value is given as “high polyreactivity”.

For the sequence “QFQLVESVGGLVQAGGSLRLSCAASGSTFVRNELGWYRQAPGKERELVAANSVDGSSTYYADSVKGRFTISRDNAKNTVYLQINSLKPEDTAVYYCNADWDYRDFYDITYDYWGQGTQVTVSS”, the “polyreactivity (PSR sort gate)” value was “low polyreactivity”.

On to “QFQLVESVGGLVQAGGSLRLSCAASGTTIPSYAMGWYRQAPGKERELVASITYSDGTTRYADSVKGRFTISRDNAKNTVYLQMNSLKPEDTAVYYCNAVYYREGMDYWGQGTQVTVSS”, for which the “polyreactivity (PSR sort gate)” value is on record as “low polyreactivity”.

Regarding “QFQLVESVVGLVQAGGSLRLSCAASGTTFGVNDMRWYRQAPGKEREFVADITTSGGSTYYADSVKGRFTISRDNAKNTVYLQMNSLKPEDTAVYYCAADLWPFEHDDYWGQGTQVTVSS”, the “polyreactivity (PSR sort gate)” value is recorded as “low polyreactivity”.

Regarding “QFQLVETGGGLVQAGGSLRLSCAASGRTFRFNAMGWYRQAPRKEREFVAAITSGGGTYYADSVKGRFTISRDNAKNPVYLQMNCLKPEDTAVYYCAAPRQYYLMVYWGQGTQVTVSS”, the “polyreactivity (PSR sort gate)” value is recorded as “low polyreactivity”.

Consider “QFQRVESGGGLVQAGGSLRLSSAASASIFSVYTMGWSRQAPGKERELDAAISTGGGSKYYADSVKGRFTISRDNAKNTVYLQMKSLKPEDTSVYYCGTDYGWPPSYWYDSFGQGTQVTVSS”, for which the “polyreactivity (PSR sort gate)” value is given as “low polyreactivity”.

“QGHLVESLGGLVQAGGSLRLSCAASGRIIGVYAMGWSRQAPGKERELVAAISEGGGSTNYADSVKGRFTISRDNSKNTVYLQMNSLKPEDTAVYYCNADADEYRDYHDYDYWGQGTQVTVSS”: the “polyreactivity (PSR sort gate)” value is on record as “low polyreactivity”.

As for “QGPHVESGGGLVQAGGSLRLSCAASGSTFYNYAMGWYIQAPGKEREFVATISFSGGSTYYADSVKGRFTISRDNAKNTVYLQMNSLKPEETAVYYCAARALTRKATGYYLTDYWGQGTQVTVSS”, the “polyreactivity (PSR sort gate)” value is “high polyreactivity”.

Turning to “QGQHVESGGGLVQAGGSLRLSCAASGFTFAHNAMGWDRQAPGKETDFVAAITSRGGSTYYADSVKGRFTISRDNAKNSVYFQMYSPNPEDTAVYYCAADDYIYTVYSYTYQYWGQGTHVTVSS”, the “polyreactivity (PSR sort gate)” value is “low polyreactivity”.

Take “QGQHVESGVGLVQAGGSLRLSCAASVFMFESNAMGWYRQAPGKERELVAAITSAGRTYYADSVKGRFTISRDNAKNTVYLQMNSLKPEETAVYYCNAPRSRYRYDYWGQGTQVTVSS”: the “polyreactivity (PSR sort gate)” value is given as “high polyreactivity”.

Consider “QGQLEESCGGLVQAGARLRISCEASGRTFRFYTMGGYRPAPGKEMELVAAISSNTGTTYADSVKGRFTISRDNAKNTVYLQMNSLKQEDTAVFFCAARVRRQYYNRPYYYWGQGTQVTVSS”, for which the “polyreactivity (PSR sort gate)” value is “high polyreactivity”.

As to “QGQLEESGGGLVQAGGSLRLSCAASGRTFGPYAMGRYRQAPGKERELVAAIRSAGSTYYADSVKGRFTISRDNAKNTVYLQMISLKPEDTAVYYCADDIARHLTGFAYYRLDYWGQGTQVTVSS”, the “polyreactivity (PSR sort gate)” value is on record as “low polyreactivity”.

Consider “QGQLEESGGGLVQAGGSLRLSCAASGSIFTLYAMGWYRQAPGKERELVAAITRSGGSTYYADSVKGRFTISRDNAKNTVYLQMNSLKPEDTAVYYCAADKAPYSTEGDYWGQGTQVTVSS”, for which the “polyreactivity (PSR sort gate)” value is “high polyreactivity”.

For the sequence “QGQLEESGGGLVQAGGSLRLSCPASGYILGGNAMGWYRQAPGKERELVARIRVSSGSTYADSVKGRFTISRDNAKNTVYLQMNSLKPEDTAVYYCAASISSRYRYTAYDYWGQGTQVTVSS”, the “polyreactivity (PSR sort gate)” value is on record as “high polyreactivity”.

With “QGQLGDSGGGLVQAGGSLRLSCAASGLTFWGKVMGWSRPAPGKERELVAAITSGGSTYYADSVKGRFTISRDNAKNTVFLQMNSQKPEDTAVYYCATAFYYSYSEYYYWGQGTQVTVSS”, the “polyreactivity (PSR sort gate)” value is “high polyreactivity”.

Turning to “QGQLLESGGGLVQAGGSLRLSCAASGRTFRSYAMGWYRQAPGKESELVAASSQRGGSSFYADSVKGRFTISRDNAKNSVYLQMNSLKPEDTAVYYCANPVRSGYDYWGQGSQVTVSS”, the “polyreactivity (PSR sort gate)” value is reported as “high polyreactivity”.

As for “QGQLVDSGGGLVQAAGSLRLSCDASGRTFVYNDMGWYRQAPGKERELVATISVSGCSTYYADSVKGRFTISRDNAKNTVYLQMISLKPEDTAVYYCAARRTWYEDHDYWGQGTQVTVSS”, the “polyreactivity (PSR sort gate)” value is reported as “low polyreactivity”.

As to “QGQLVDSGGGLVQAGGSLRLSCAASGSIVRPNAMGWYRPAPGKEREFVAAITSSSGPTYYADSVKGRFTISRDNAKNTVYLQMNSLKPEDTAVYYCAAKYTSRSYKYDYWGHGTQVTVSS”, the “polyreactivity (PSR sort gate)” value is “high polyreactivity”.
